Measured values published in PMC5979349, “The Recombinant Inhibitor of DNA Binding Id2 Forms Multimeric Structures via the Helix-Loop-Helix Domain and the Nuclear Export Signal” (International Journal of Molecular Sciences, 2018).

B1: recombinant full-length human Id2 protein, preparation with oligomers of the type Id2nβMEn (natural protein, UniProt Q02363 1-134, looked up)
chain: MKAFSPVRSVRKNSLSDHSLGISRSKTPVDDPMSLLYNMNDCYSKLKELVPSIPQNKKVSKMEILQHVIDYILDLQIALDSHPTIVSLHHQRPGQNQASRTPLTTLNTDISILSLQASEFPSELMSNDSKALCG
modifications: mixed disulfide with βME, as Id2nβMEn (n = 2–4)
notes: the His-tag of pET22b(+) was excluded by a double stop; Another preparation of the same construct as m1; the formula implies one βME for each monomer, so one cysteine of each monomer is free or in an intermolecular disulfide
B2: recombinant full-length human Id2 protein, sample Id2’ (natural protein, UniProt Q02363 1-134, looked up)
chain: B1 chain
modifications: both cysteine residues (Cys-42 and Cys-133) disulfide-bonded to β-mercaptoethanol (βME); one oxidized methionine residue, Met(O)
notes: the His-tag of pET22b(+) was excluded by a double stop; The most homogeneous unlabeled preparation; also called Id2 1–134

How the values were obtained:
[1] = target: the molecule itself; experiment: MALDI-TOF mass spectrometry; lyophilized protein dissolved in water, α-cyano-4-hydroxycinnamic acid as matrix
[2] = target: the molecule itself; experiment: dynamic light scattering; Id2’ 80 μM in pure water, 21 °C, measured immediately after filtration (0.2 μm); globular model for molecular weight
[3] = target: the molecule itself; experiment: NMR diffusion-ordered spectroscopy (DOSY); unlabeled Id2’ at 0.27 mM in H2O/D2O (94:6, v/v); calibration curve with protein standards
[4] = target: the molecule itself; experiment: dynamic light scattering; Id2’ 80 μM in pure water, 21 °C, two weeks old filtered sample; globular model for molecular weight

| Protein | stoichiometry N [1] | stoichiometry N [2] [monomers] | stoichiometry N [3] [monomers] | stoichiometry N [4] [monomers] |
| --- | --- | --- | --- | --- |
| B1 | 2 to 4 |  |  |  |
| B2 |  | 3 | ~16 | 16 |
